{
  "source": "paper PMC6814019",
  "about": "(Molecular cell, 2019)",
  "target": "the molecule itself",
  "test": "native MS",
  "note": "Several values for one entry are separate records, joined by “and”; a condition that tells them apart may be missing. Equal values may be shown once.",
  "data": [
    {"protein": "C. elegans MORC-1 (8x-His-MBP-CeMORC) (natural protein, UniProt Q23243 1-845, looked up) MPNDTNGDDYKKLEKASVNLNFLKSNSHTHIGPLSAIAELVDNAYDADARDLHIDFLDINNEQFLELRDDGLGMAREEALHAITFGHSAKCSYKIGRYGNGLKSGAFHLGRELLLVTKKDGIITALLISHRFHEDQGLTNSVFVPCPSFDLDGIPICQTESEKDRFNLEMKIIGKYAPLGSRTLAELADKITGSTGTIIIIGNLRRSVTGELAINTTKDPTDIIVDSGEENKPWRESLRKYLEFIYLKPRMRIHVRGEQVLPKRISENWIAKKQQLISGDQFTAAYNKILDEKNETVKKCEEEKALVMSEIGGTNYTSVRREDRANQKSLRLRVDTSQKNLDSAIADRDAFKKEGKSEKSFHLNMGIETKDRSNNGIHFYINNRLILWGNKEAKFFSKFANSIGISMFLSLDYSLFSAAQNKQGFDHVKDFQVLVRKCNDALRDYSMYLEKSWIPTHLKNTWNVRIYEGDDVWAVLWGVYGYNNTTSTTCVQTHDSARDQVMWTTCGIWKLCQMCRTWIKASRPNEIVGSNDDFFCCENVNHHGCRTIVAEDNDFSKLPEKYDHILPQKRLTNSAPSSSDSQNSIRSASSCSSSSRLLNVAKIESHERIHSSTGGHRLGESFSTTSVKMEPIPNNAHDSHIAEVQRRHSTGRAISPAVSEISRRAGTAPSSQLDMIMGEESDESQEALTIRAPRQRAKRPIERVSRRNRRDQSDDDSDSENEERYATAPKKSKVKGKAVVRAPKMTREKWLEEMLNQFLTAHGEQPLPKNGQRDFDPTNIVEQTSRRNFKNNQRIVDAQQAIMRQIGSVLDHLKRNPTHNFKIPASGTVEEKLKNIEHQIKGKKK", "values": [
      {"measurement": "stoichiometry N", "result": "2 and 3 and 4"}
    ]}
  ]
}
